Laboratory results reported in PMC4689412.

These substances were tested against AP-1 clathrin adaptor complex (UniProt O43747) (assay: GST pull-down, Western blot with anti-γ-adaptin, densitometry). Conditions: HeLa cell lysates; GST-fusions immobilized on GSH-sepharose beads; parent: est. 100; read off a plot.
Chain of UniProt O43747 (O43747 whole entry, looked up, the tested form may be a part, one chain of several): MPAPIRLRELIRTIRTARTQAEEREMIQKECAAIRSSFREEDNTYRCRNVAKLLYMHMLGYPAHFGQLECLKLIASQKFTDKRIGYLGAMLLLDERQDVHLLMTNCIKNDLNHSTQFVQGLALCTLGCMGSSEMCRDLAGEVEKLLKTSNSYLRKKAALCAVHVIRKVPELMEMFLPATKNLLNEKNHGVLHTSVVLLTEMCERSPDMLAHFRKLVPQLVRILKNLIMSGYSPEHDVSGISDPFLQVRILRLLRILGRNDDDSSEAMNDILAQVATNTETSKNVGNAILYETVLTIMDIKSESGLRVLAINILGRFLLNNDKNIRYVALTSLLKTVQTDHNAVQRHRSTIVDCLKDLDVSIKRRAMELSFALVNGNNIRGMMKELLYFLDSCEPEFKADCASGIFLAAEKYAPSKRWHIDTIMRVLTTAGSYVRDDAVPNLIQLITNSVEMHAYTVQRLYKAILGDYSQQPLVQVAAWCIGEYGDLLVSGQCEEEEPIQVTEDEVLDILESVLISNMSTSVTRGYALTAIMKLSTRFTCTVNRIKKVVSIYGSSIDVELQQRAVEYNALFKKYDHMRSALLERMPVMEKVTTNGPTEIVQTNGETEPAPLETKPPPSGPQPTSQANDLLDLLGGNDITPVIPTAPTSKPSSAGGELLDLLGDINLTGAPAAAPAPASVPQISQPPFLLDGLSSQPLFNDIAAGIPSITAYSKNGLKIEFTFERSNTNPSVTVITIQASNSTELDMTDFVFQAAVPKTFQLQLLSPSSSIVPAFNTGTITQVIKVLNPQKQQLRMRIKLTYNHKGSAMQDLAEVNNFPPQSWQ
With “GST-Nef, wild-type HIV-1 NL4.3 Nef fused to glutathione-S-transferase L164A; L165A” the percent of parent was 17 % of control.
“GST-Nef, wild-type HIV-1 NL4.3 Nef fused to glutathione-S-transferase P129A; G130A” was tested, and the percent of parent was 74 % of control.
For “GST-Nef, wild-type HIV-1 NL4.3 Nef fused to glutathione-S-transferase P131A; G132A”, the percent of parent was 75 % of control.
